B1: wt mouse RtcB-Flag (pCMV3-mRTCB-Flag) [mouse] / PTP1B-C215S (trapping mutant; pcDNA3.1/Zeo-PTP1B [not stated] (parent)
chain 1: MSRNYNDELQFLDKINKNCWRIKKGFVPNMQVEGVFYVNDALEKLMFEELRNACRGGGVGGFLPAMKQIGNVAALPGIVHRSIGLPDVHSGYGFAIGNMAAFDMNDPEAVVSPGGVGFDINCGVRLLRTNLDESDVQPVKEQLAQAMFDHIPVGVGSKGVIPMNAKDLEEALEMGVDWSLREGYAWAEDKEHCEEYGRMLQADPNKVSPRAKKRGLPQLGTLGAGNHYAEIQVVDEIFNEYAAKKMGIDHKGQVCVMIHSGSRGLGHQVATDALVAMEKAMKRDKIIVNDRQLACARIASPEGQDYLKGMAAAGNYAWVNRSSMTFLTRQAFAKVFNTTPDDLDLHVIYDVSHNIAKVEQHVVDGKERTLLVHRKGSTRAFPPHHPLIAVDYQLTGQPVLIGGTMGTCSYVLTGTEQGMTETFGTTCHGAGRALSRAKSRRNLDFQDVLDKLADMGIAIRVASPKLVMEEAPESYKNVTDVVNTCHDAGISKKAIKLRPIAVIKG
chain 2: MEMEKEFEQIDKSGSWAAIYQDIRHEASDFPCRVAKLPKNKNRNRYRDVSPFDHSRIKLHQEDNDYINASLIKMEEAQRSYILTQGPLPNTCGHFWEMVWEQKSRGVVMLNRVMEKGSLKCAQYWPQKEEKEMIFEDTNLKLTLISEDIKSYYTVRQLELENLTTQETREILHFHYTTWPDFGVPESPASFLNFLFKVRESGSLSPEHGPVVVHSSAGIGRSGTFCLADTCLLLMDKRKDPSSVDIKKVLLEMRKFRMGLIQTADQLRFSYLAVIEGAKFIMGDSSVQDQWKELSHEDLEPPPEHIPPPPRPPKRILEPHNGKCREFFPNHQWVKEETQEDKDCPIKEEKGSPLNAAPYGIESMSQDTEVRSRVVGGSLRGAQAASPAKGEPSLPEKDEDHALSYWKPFLVNMCVATVLTAGAYLCYRFLFNSNT

Variants of: B1
Test: co-immunoprecipitation (IP: PTP1B, immunoblot RtcB), band quantification
Settings: with PTP1B-C215S (trapping mutant; pcDNA3.1/Zeo-PTP1B C215S); HEK cells, 1 μg RtcB-Flag plasmid and 1 μg PTP1B C215S plasmid; n = 3; parent: 100; read off a plot

Row | percent of parent [% WT] | Variant
1 | 75 | chain 1 MSRNYNDELQFLDKINKNCWRIKKGFVPNMQVEGVFYVNDALEKLMFEELRNACRGGGVGGFLPAMKQIGNVAALPGIVHRSIGLPDVHSGYGFAIGNMAAFDMNDPEAVVSPGGVGFDINCGVRLLRTNLDESDVQPVKEQLAQAMFDHIPVGVGSKGVIPMNAKDLEEALEMGVDWSLREGYAWAEDKEHCEEYGRMLQADPNKVSPRAKKRGLPQLGTLGAGNHYAEIQVVDEIFNEYAAKKMGIDHKGQVCVMIHSGSRGLGHQVATDALVAMEKAMKRDKIIVNDRQLACARIASPEGQDYLKGMAAAGNFAWVNRSSMTFLTRQAFAKVFNTTPDDLDLHVIYDVSHNIAKVEQHVVDGKERTLLVHRKGSTRAFPPHHPLIAVDYQLTGQPVLIGGTMGTCSYVLTGTEQGMTETFGTTCHGAGRALSRAKSRRNLDFQDVLDKLADMGIAIRVASPKLVMEEAPESYKNVTDVVNTCHDAGISKKAIKLRPIAVIKG [chain 1 Y316F]
2 | 55 | chain 1 MSRNYNDELQFLDKINKNCWRIKKGFVPNMQVEGVFYVNDALEKLMFEELRNACRGGGVGGFLPAMKQIGNVAALPGIVHRSIGLPDVHSGYGFAIGNMAAFDMNDPEAVVSPGGVGFDINCGVRLLRTNLDESDVQPVKEQLAQAMFDHIPVGVGSKGVIPMNAKDLEEALEMGVDWSLREGYAWAEDKEHCEEYGRMLQADPNKVSPRAKKRGLPQLGTLGAGNHYAEIQVVDEIFNEYAAKKMGIDHKGQVCVMIHSGSRGLGHQVATDALVAMEKAMKRDKIIVNDRQLACARIASPEGQDYLKGMAAAGNYAWVNRSSMTFLTRQAFAKVFNTTPDDLDLHVIYDVSHNIAKVEQHVVDGKERTLLVHRKGSTRAFPPHHPLIAVDYQLTGQPVLIGGTMGTCSYVLTGTEQGMTETFGTTCHGAGRALSRAKSRRNLDFQDVLDKLADMGIAIRVASPKLVMEEAPESFKNVTDVVNTCHDAGISKKAIKLRPIAVIKG [chain 1 Y475F]

Second part, the variant before the results:

Row | Variant | percent of parent [% WT]
3 | chain 1 MSRNYNDELQFLDKINKNCWRIKKGFVPNMQVEGVFYVNDALEKLMFEELRNACRGGGVGGFLPAMKQIGNVAALPGIVHRSIGLPDVHSGYGFAIGNMAAFDMNDPEAVVSPGGVGFDINCGVRLLRTNLDESDVQPVKEQLAQAMFDHIPVGVGSKGVIPMNAKDLEEALEMGVDWSLREGYAWAEDKEHCEEYGRMLQADPNKVSPRAKKRGLPQLGTLGAGNHYAEIQVVDEIFNEYAAKKMGIDHKGQVCVMIHSGSRGLGHQVATDALVAMEKAMKRDKIIVNDRQLACARIASPEGQDFLKGMAAAGNFAWVNRSSMTFLTRQAFAKVFNTTPDDLDLHVIYDVSHNIAKVEQHVVDGKERTLLVHRKGSTRAFPPHHPLIAVDYQLTGQPVLIGGTMGTCSYVLTGTEQGMTETFGTTCHGAGRALSRAKSRRNLDFQDVLDKLADMGIAIRVASPKLVMEEAPESFKNVTDVVNTCHDAGISKKAIKLRPIAVIKG [chain 1 Y306F Y316F Y475F] | 38
4 | chain 1 MSRNYNDELQFLDKINKNCWRIKKGFVPNMQVEGVFYVNDALEKLMFEELRNACRGGGVGGFLPAMKQIGNVAALPGIVHRSIGLPDVHSGYGFAIGNMAAFDMNDPEAVVSPGGVGFDINCGVRLLRTNLDESDVQPVKEQLAQAMFDHIPVGVGSKGVIPMNAKDLEEALEMGVDWSLREGYAWAEDKEHCEEYGRMLQADPNKVSPRAKKRGLPQLGTLGAGNHYAEIQVVDEIFNEYAAKKMGIDHKGQVCVMIHSGSRGLGHQVATDALVAMEKAMKRDKIIVNDRQLACARIASPEGQDFLKGMAAAGNFAWVNRSSMTFLTRQAFAKVFNTTPDDLDLHVIYDVSHNIAKVEQHVVDGKERTLLVHRKGSTRAFPPHHPLIAVDYQLTGQPVLIGGTMGTCSYVLTGTEQGMTETFGTTCHGAGRALSRAKSRRNLDFQDVLDKLADMGIAIRVASPKLVMEEAPESYKNVTDVVNTCHDAGISKKAIKLRPIAVIKG [chain 1 Y306F Y316F] | 37
5 | chain 1 MSRNYNDELQFLDKINKNCWRIKKGFVPNMQVEGVFYVNDALEKLMFEELRNACRGGGVGGFLPAMKQIGNVAALPGIVHRSIGLPDVHSGYGFAIGNMAAFDMNDPEAVVSPGGVGFDINCGVRLLRTNLDESDVQPVKEQLAQAMFDHIPVGVGSKGVIPMNAKDLEEALEMGVDWSLREGYAWAEDKEHCEEYGRMLQADPNKVSPRAKKRGLPQLGTLGAGNHYAEIQVVDEIFNEYAAKKMGIDHKGQVCVMIHSGSRGLGHQVATDALVAMEKAMKRDKIIVNDRQLACARIASPEGQDFLKGMAAAGNYAWVNRSSMTFLTRQAFAKVFNTTPDDLDLHVIYDVSHNIAKVEQHVVDGKERTLLVHRKGSTRAFPPHHPLIAVDYQLTGQPVLIGGTMGTCSYVLTGTEQGMTETFGTTCHGAGRALSRAKSRRNLDFQDVLDKLADMGIAIRVASPKLVMEEAPESYKNVTDVVNTCHDAGISKKAIKLRPIAVIKG [chain 1 Y306F] | 100

— PMC8899846
